Measured values from patent US20190359674A1.
Positions of bridges follow the written chain, without caps; N, C: chain ends. Non-standard residues stand in square brackets, D forms with d. Dap = NC[C@H](N)C(=O)O

Target: T1, recombinant human MAS1 receptor (human), P04201
T1 chain: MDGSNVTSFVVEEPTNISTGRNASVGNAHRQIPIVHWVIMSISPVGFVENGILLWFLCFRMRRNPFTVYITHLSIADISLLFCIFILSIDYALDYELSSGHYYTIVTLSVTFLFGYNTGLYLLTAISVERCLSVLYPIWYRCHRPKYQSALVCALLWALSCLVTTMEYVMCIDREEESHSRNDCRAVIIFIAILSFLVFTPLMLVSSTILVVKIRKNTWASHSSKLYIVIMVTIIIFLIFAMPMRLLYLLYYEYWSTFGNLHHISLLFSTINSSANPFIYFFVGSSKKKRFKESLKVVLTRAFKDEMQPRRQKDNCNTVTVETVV
Test: cell-based or functional assay

activity in the MAS1 activation (NO release) assay relative to peptide AT1-7, at 10 nM (% of AT1-7 activity): 90
B1: cyclotide MCo-AT1-7 (designed binder)
chain: GGVCPKILQRCRRDSDCPGACICRGNGYCGSG[Dap]RVYIHE-OH
modifications: disulfide 11-23, 17-29, 4-21; lactam N-39 (inferred); also: Gly32 joined to Dap33 β-amino group by isopeptide bond, Dap33 α-amino group free
